Read-outs that look alike come from different tables or passages of the source. Where a SMILES comes first, the peptide text is derived from it. [ ]: non-standard residue; d: D form. The star is where a group is joined. ξ: configuration not given here. Dolaproine = CO[C@@H]([C@@H]1CCCN1)[C@@H](C)C(=O)O; Dil = CC[C@H](C)[C@H](NC)[C@@H](CC(=O)O)OC; NMe2Val = CC(C)[C@@H](C(=O)*)N(C)C; ξNMe2Val = CC(C)C(C(=O)*)N(C)C; NMeV = CN[CH](C(=O)O)C(C)C; Ava = NCCCCC(=O)O
Tests used:
SKBr3 cells = assay: Cell killing assay (MTS), SKBr3 cells; type: cell-based, human
Method: (§1) SKBr3, human breast cancer cell line, high HER2 expression levels, up to 1,000,000 receptors per cell [Lazar G A, et al Proc Natl Acad Sci USA. […] When confluency was 70-80%, cells were washed with PBS (2×10 ml) and incubated with trypsin for 5-7 min. Complete media was added and the cells were resuspended by pipetting. The cells were recovered by centrifugation (2 min, 2000 rpm), the supernatant was discarded, and the cells were resuspended in complete DMEM (5 ml). The cells were then counted using a haemocytometer and diluted accordingly. They were plated at 4500 cells/well (200 μl) using attachment factor and incubated overnight at 37° C., 5% CO2 in a humidified atmosphere. U87 is a non-HER2 expressing glioblastoma cell line and was grown in a similar way, plated at 1000 cells/well.
(§2) […] Cell viability was measured using the Promega Aqueous Cell-titre-96™ aqueous one solution cell proliferation kit according to manufacturer's instructions. Briefly, the media was removed and 100 μl of complete phenol red free media, pre-combined with MTS reagent, was added to the cells (20 μl of reagent per 100 μl of media). The plates were read on an ELISA plate reader at 490 nm after a 2 hr incubation in the dark (5% CO2, 37° C.).
(§3) The data (absorption units) were converted to % cell survival by using the untreated controls as the 100% cell survival and the Triton X-100 controls as the 100% cell death. The average absorption value for the latter was subtracted from all the rest of the data in order to get a suitable baseline. The averages were converted to survival and standard error values were obtained for each n value (as a % cell survival). […] Experiments were repeated at least 3 times for each compound tested and a set or an average of the data was plotted and fitted to obtain a dose response curve.
(§4) The cells were recovered by centrifugation (2 min, 2000 rpm), the supernatant was discarded, and the cells were resuspended in complete McCoy's 5A (5 ml). The cells were then counted using a haemocytometer and diluted accordingly. They were plated at 5000 cells/well (200 μl) using attachment factor and incubated overnight at 37° C., 5% CO2 in a humidified atmosphere. U87 is a non-HER2 expressing glioblastoma cell line [Zitron I M et al (2013) BMC Cancer 13:83] and was grown in a similar way, plated at 1000 cells/well (using DMEM media). BT474 is a HER2 expressing breast cancer cell line [Brockhoff G et al (2007) Cell Prolif 40:488-507] and was grown in a similar way, plated at 7500 cells/well (using RPMI media). NCI-N87 is a HER2 expressing gastric cancer cell line [Yamashita-Kashima Y et al (2013) Oncol. Rep 30:1087-93] and was grown in a similar way, plated at 7500 cells/well (using RPMI media).
as §2, with “kit (MTS reagent)” for “kit”
(§5) The data (absorption units) were converted to % cell survival by using the untreated controls as the 100% cell survival and the Triton X-100 controls as the 100% cell death. The average absorption value for the latter was subtracted from all the rest of the data in order to get a suitable baseline. The averages were converted to survival and standard error values were obtained for each n value (as a % cell survival).

U87 cells = assay: Cell killing assay (MTS), U87 cells; type: cell-based
Method: as §1
(§6) The cells were exposed to the various ADCs diluted in complete media for 96 hours at 37° C., 5% CO2 in a humidified atmosphere. Cell viability was measured using the Promega Aqueous Cell-titre-96™ aqueous one solution cell proliferation kit according to manufacturer's instructions. Briefly, the media was removed and 100 μl of complete phenol red free media, pre-combined with MTS reagent, was added to the cells (20 μl of reagent per 100 μl of media). The plates were read on an ELISA plate reader at 490 nm after a 2 hr incubation in the dark (5% CO2, 37° C.).
as §3, §4
as §6, with “kit (MTS reagent)” for “kit”
as §5

BT474 cells = assay: Cell killing assay (MTS), BT474 cells; type: cell-based, human
Method: as §4
as §6, with “kit (MTS reagent)” for “kit”
as §3, with “dose-response” for “dose response”

[1] = BT474 Cells (HER2++), 96 hours, Table 46
[2] = BT474 Cells (HER2++), 96 hours, Table 46, read-out: IC50
[3] = SKBr3 Cells (HER2+++), 96 hours, Table 46
[4] = SKBr3 Cells (HER2+++), 96 hours, Table 46, read-out: IC50
[5] = U87 Cells (HER2−), 96 hours, Table 46
[6] = SKBr3 Cells (HER2 +++), 96 hours, Table 50
[7] = U87 Cells (HER2−), 96 hours, Table 50
[8] = U87 Cells (HER2−), 96 hours, Table 50, read-out: IC50

CC(C)C(NC(=O)C(C(C)C)N(C)C)C(=O)N(C)C(C(=O)N1CCCC1C(=O)N1CCCC1C(=O)NCCCCC(=O)O)C(C)C (centres unmarked) [Free P5C5 (acid) drug, P5C5] (ξNMe2Val-V[NMeV]PP[Ava]-OH; configuration not given here)
IC50 (SKBr3 cells; Homo sapiens, SK-BR-3, 96 h, read-out: IC50 nM SKBr3 Cells (HER2+++)): 2200 ± 400 nM
IC50 (U87 cells; Homo sapiens, U-87 MG, 96 h, read-out: IC50 nM U87 Cells (HER2−)): 7300 ± 900 nM

CC[C@H](C)[C@@H]([C@@H](CC(=O)N1CCC[C@H]1[C@H](OC)[C@@H](C)C(=O)N[C@@H](Cc1ccccc1)C(=O)O)OC)N(C)C(=O)[C@@H](NC(=O)[C@H](C(C)C)N(C)C)C(C)C [Free drug Auristatin F] (NMe2Val-V[Dil][Dolaproine]F-OH)
IC50 (BT474 cells; Homo sapiens, BT-474, 96 h, read-out: IC50 pM): > 2500 pM
IC50 (SKBr3 cells; Homo sapiens, SK-BR-3, 96 h, read-out: IC50 pM): > 5.5 nM
IC50 (U87 cells; Homo sapiens, U-87 MG, 96 h, read-out: IC50 pM): > 12.5 nM

COc1cc2cc(c1Cl)N(C)C(=O)C[C@H](OC(=O)[C@H](C)N(C)C(=O)CCS)[C@]1(C)O[C@H]1[C@H](C)[C@@H]1C[C@@](O)(NC(=O)O1)[C@H](OC)/C=C/C=C(\C)C2 [Free drug DM1]
IC50 (SKBr3 cells; Homo sapiens, SK-BR-3, 96 h, read-out: IC50 nM): 47.6 nM
IC50 (U87 cells; Homo sapiens, U-87 MG, 96 h, read-out: IC50 nM): 50.7 nM

B1: scFv (TCT)-P5C5, DAR = 12 (conjugate)
scFv: SGSGGSGQVQLVQSGAEVKKPGESLKISCKGSGYSFTSYWIAWVRQMPGKGLEYMGLIYPGDSDTKYSPSFQGQVTISVDKSVSTAYLQWSSLKPSDSAVYFCARHDVGYCSSSNCAAWPEYFQHWGQGTLVTVSSGGGGSGGGGSGGGGSQSVLTQPPSVSAAPGQKVTISCSGSSSNIGNNYVSWYQQLPGTAPKLLIYGHTNRPAGVPDRFSGSKSGTSASLAISGFRSEDEADYYCAAWDDSLSGWVFGGGTKLTVLMASMTGGQQMG
IC50 μg/ml SKBr3 Cells (HER2+++) (SKBr3 cells; 96 hours exposure): 5.01 ± 1.9 µg/mL
IC50 (SKBr3 cells; 96 hours exposure, read-out: IC50 nM SKBr3 Cells (HER2+++)): 179 ± 68 nM
IC50 μg/ml U87 Cells (HER2−) (U87 cells; 96 hours exposure): 100 µg/mL
IC50 (U87 cells; 96 hours exposure, read-out: IC50 nM U87 Cells (HER2−)): 3570 nM

B2: scFv (TCT)-MMAF-C5, DAR 6.6 (conjugate)
scFv: SGSGGSGQVQLVQSGAEVKKPGESLKISCKGSGYSFTSYWIAWVRQMPGKGLEYMGLIYPGDSDTKYSPSFQGQVTISVDKSVSTAYLQWSSLKPSDSAVYFCARHDVGYCSSSNCAAWPEYFQHWGQGTLVTVSSGGGGSGGGGSGGGGSQSVLTQPPSVSAAPGQKVTISCSGSSSNIGNNYVSWYQQLPGTAPKLLIYGHTNRPAGVPDRFSGSKSGTSASLAISGFRSEDEADYYCAAWDDSLSGWVFGGGTKLTVLMASMTGGQQMG
IC50 μg/ml (BT474 cells; [1]): 0.2 µg/mL
IC50 (BT474 cells; [2]): 7.14 pM
IC50 μg/ml (SKBr3 cells; [3]): 0.087 µg/mL
IC50 (SKBr3 cells; [4]): 0.0031 nM
IC50 μg/ml (U87 cells; [5]): >5 µg/mL

B3: scFv (TCT1067)-MMAF-C5, DAR 6.4 (conjugate)
scFv: SGSGGSGQVQLVQSGAEVKKPGESLKISCKGSGYSFTSYWIAWVRQMPGKGLEYMGLIYPGDSDTKYSPSFQGQVTISVDKSVSTAYLQWSSLKPSDSAVYFCARHDVGYCTDRTCAAWPEWLGVWGQGTLVTVSSGGGGSGGGGSGGGGSQSVLTQPPSVSAAPGQKVTISCSGSSSNIGNNYVSWYQQLPGTAPKLLIYGHTNRPAGVPDRFSGSKSGTSASLAISGFRSEDEADYYCASWDYTLSGWVFGGGTKLTVLMASMTGGQQMG
IC50 μg/ml (BT474 cells; [1]): 0.008 µg/mL
IC50 (BT474 cells; [2]): 286 pM
IC50 μg/ml (SKBr3 cells; [3]): 0.007 µg/mL
IC50 (SKBr3 cells; [4]): 0.25 nM
IC50 μg/ml (U87 cells; [5]): >5 µg/mL

B4: scFv (TCT1067)-P5C5 DAR 12.5 (conjugate)
scFv: SGSGGSGQVQLVQSGAEVKKPGESLKISCKGSGYSFTSYWIAWVRQMPGKGLEYMGLIYPGDSDTKYSPSFQGQVTISVDKSVSTAYLQWSSLKPSDSAVYFCARHDVGYCTDRTCAAWPEWLGVWGQGTLVTVSSGGGGSGGGGSGGGGSQSVLTQPPSVSAAPGQKVTISCSGSSSNIGNNYVSWYQQLPGTAPKLLIYGHTNRPAGVPDRFSGSKSGTSASLAISGFRSEDEADYYCASWDYTLSGWVFGGGTKLTVLMASMTGGQQMG
IC50 μg/ml (BT474 cells; BT474 Cells (HER2++), 96 hours, Table 48): 0.3 µg/mL
IC50 (BT474 cells; BT474 Cells (HER2++), 96 hours, Table 48, read-out: IC50): 10700 pM
IC50 μg/ml (SKBr3 cells; SKBr3 Cells (HER2+++), 96 hours, Table 48): 0.04 µg/mL
IC50 (SKBr3 cells; SKBr3 Cells (HER2+++), 96 hours, Table 48, read-out: IC50): 1.42 nM

B5: scFv (TCT1067)-DM1 DAR 3.5 (conjugate)
scFv: SGSGGSGQVQLVQSGAEVKKPGESLKISCKGSGYSFTSYWIAWVRQMPGKGLEYMGLIYPGDSDTKYSPSFQGQVTISVDKSVSTAYLQWSSLKPSDSAVYFCARHDVGYCTDRTCAAWPEWLGVWGQGTLVTVSSGGGGSGGGGSGGGGSQSVLTQPPSVSAAPGQKVTISCSGSSSNIGNNYVSWYQQLPGTAPKLLIYGHTNRPAGVPDRFSGSKSGTSASLAISGFRSEDEADYYCASWDYTLSGWVFGGGTKLTVLMASMTGGQQMG
IC50 μg/ml (SKBr3 cells; [6]): 0.0417 µg/mL
IC50 (SKBr3 cells; SKBr3 Cells (HER2 +++), 96 hours, Table 50, read-out: IC50): 1.49 nM
IC50 μg/ml (U87 cells; [7]): 0.641 µg/mL
IC50 (U87 cells; [8]): 22.9 nM

B6: scFv (TCT1067)-DM1 DAR 5.5 (conjugate)
scFv: SGSGGSGQVQLVQSGAEVKKPGESLKISCKGSGYSFTSYWIAWVRQMPGKGLEYMGLIYPGDSDTKYSPSFQGQVTISVDKSVSTAYLQWSSLKPSDSAVYFCARHDVGYCTDRTCAAWPEWLGVWGQGTLVTVSSGGGGSGGGGSGGGGSQSVLTQPPSVSAAPGQKVTISCSGSSSNIGNNYVSWYQQLPGTAPKLLIYGHTNRPAGVPDRFSGSKSGTSASLAISGFRSEDEADYYCASWDYTLSGWVFGGGTKLTVLMASMTGGQQMG
IC50 μg/ml (SKBr3 cells; [6]): 0.0078 µg/mL
IC50 μg/ml (U87 cells; [7]): 0.419 µg/mL
IC50 (U87 cells; [8]): 14.9 nM
